# What was measured:
# [1] = tested on: male C57BI6 mice; assay: 2/3 partial hepatectomy in mice; assay type: in vivo, mouse
# Method: Forty-eight male C57BI6 mice aged 10-12 weeks underwent either 2/3 partial hepatectomy, paracetamol intoxication or chronic liver injury plus 2/3 partial hepatectomy. 2/3 partial hepatectomy was performed by ligating the left lobe and left and right median lobes. Paracetamol intoxication was performed by intraperitoneal administration of 350 mg/kg paracetamol dissolved in phosphate buffered saline (PBS). Chronic liver injury plus 2/3 partial hepatectomy was performed by eight weeks intraperitoneal carbon tetrachloride administration 1 mcl/g twice weekly dissolved in olive oil followed by ⅔ partial hepatectomy as described above. […] Control mice (n=8 per injury model) received subcutaneous PBS of appropriate volume. […]
# Following a midline laparotomy the liver was excised and weighed. Liver weight to body weight ratio was calculated and expressed as a percentage. Livers were fixed in 4% formalin overnight then transferred to 70% ethanol. Livers were then embedded in paraffin blocks and 4 μm sections cut. Immunohistochemistry for Ki67 (a marker of cellular proliferation expressed throughout the cell cycle) was performed following heat mediated antigen retrieval in Tris/EDTA solution at pH9. Hepatocyte proliferation was quantified by counting ki67 positive hepatocytes in 20 high powered fields (400×) per animal and the mean calculated. […]
# [2] = tested on: Ba/F3 CS1R reporter cell line; assay: Proliferation of Ba/F3 CS1R reporter cell line (MTT cell viability assay); assay type: cell-based, porcine; settings: data not shown
# Method: Stable Ba/F3 cells expressing porcine CSF-1R were maintained in culture with complete RPMI supplemented with either 10^4 Units/ml rh-CSF-1 or 10% IL-3 conditioned medium prior to MTT assay. 2×10^4 cells/well (Ba/F3 cells and Ba/F3 transfectants), or 5×10^4 cells/well (pig BMM) of a 96 well plate were plated in triplicate or quadruplicate and appropriate treatment (serial dilutions of rh-CSF-1 or porcine Fc CSF-1 were added to make a total volume of 100 μl per well. Cells were incubated for 48 hours at 37° C. with 5% CO2. For Ba/F3 cells, 10 μl of MTT (Sigma Aldrich M5655) stock solution (5 mg/ml) was added directly to each well to achieve a final concentration of 0.5 mg/ml and incubated at 37° C. for 3 hours prior to solubilisation overnight. For adherent mouse BMM cells, culture medium was replaced with 50 μl of 1 mg/ml MTT solution and incubated for 1 hour at 37° C. MTT solution was removed and tetrazolium salt solubilised with 100 μl of solubilisation agent (0.1M HCL, 10% Triton x-100 and isopropanol) followed by incubation at 37° C. with 5% CO2 for 10 minutes. Plates were read at 570 nm with reference wavelength of 405 nm.
# Mice were injected with Fc-CSF-1 subcutaneously on each of 4 days and sacrificed on the 5th day. The mice were csf1r-EGFP (MacGreen) mice on the C57BI/6 background. […]
# [3] = tested on: male C57BI6 mice; assay: Chronic liver injury (carbon tetrachloride) plus 2/3 partial hepatectomy in mice; assay type: in vivo, mouse; settings: for mouse body weight: p<0.001 at day 4
# Method: Forty-eight male C57BI6 mice aged 10-12 weeks underwent either 2/3 partial hepatectomy, paracetamol intoxication or chronic liver injury plus 2/3 partial hepatectomy. 2/3 partial hepatectomy was performed by ligating the left lobe and left and right median lobes. Paracetamol intoxication was performed by intraperitoneal administration of 350 mg/kg paracetamol dissolved in phosphate buffered saline (PBS). Chronic liver injury plus 2/3 partial hepatectomy was performed by eight weeks intraperitoneal carbon tetrachloride administration 1 mcl/g twice weekly dissolved in olive oil followed by ⅔ partial hepatectomy as described above. […] Control mice (n=8 per injury model) received subcutaneous PBS of appropriate volume. All mice were culled on day 4 following injury (partial hepatectomy or paracetamol intoxication).
# Following a midline laparotomy the liver was excised and weighed. Liver weight to body weight ratio was calculated and expressed as a percentage. Livers were fixed in 4% formalin overnight then transferred to 70% ethanol. Livers were then embedded in paraffin blocks and 4 μm sections cut. Immunohistochemistry for Ki67 (a marker of cellular proliferation expressed throughout the cell cycle) was performed following heat mediated antigen retrieval in Tris/EDTA solution at pH9. Hepatocyte proliferation was quantified by counting ki67 positive hepatocytes in 20 high powered fields (400×) per animal and the mean calculated.
# The effects of Fc-CSF1 on liver regeneration in murine models of acute liver injury (partial hepatectomy; paracetamol intoxication) and acute-on-chronic liver injury (chronic liver injury plus partial hepatectomy) were studieD. […] Control mice (n=8 per injury model) received subcutaneous PBS of appropriate volume.
# CSF1-Fc or control was administered to mice immediately following 2/3 partial hepatectomy on a background of 8 weeks carbon tetrachloride induced chronic liver injury (1 mcl/g carbon tetrachloride/mouse 2×/week).
# [4] = administered immediately following 2/3 partial hepatectomy, vs control
# [5] = day 2 following partial hepatectomy, vs controls
# [6] = chronic liver injury with 2/3 partial hepatectomy, vs control
molecule,measurement,setting,value
"Fc-CSF-1: active fragment of porcine CSF-1 (SEQ ID NO:1) linked to the hinge-CH3 region of porcine IgG1a (SEQ ID NO:2) (protein, listed as Sus scrofa) SENCSHMIGDGHLKVLQQLIDSQMETSCQIAFEFVDQEQLTDPVCYLKKAFLQVQDILDETMRFRDNTPNANVIVQLQELSLRLNSCFTKDYEEQDKACVRTFYETPLQLLEKIKNVFNETKNLLKKDWNIFSKNCNNSFAKCSSQHERQPEGRGTKTKPPCPICPGCEVAGPSVFIFPPKPKDTLMISQTPEVTCVVVDVSKEHAEVQFSWYVDGVEVHTAETRPKEEQFNSTYRVVSVLPIQHQDWLKGKEFKCKVNNVDLPAPITRTISKAIGQSREPQVYTLPPPAEELSRSKVTVTCLVIGFYPPDIHVEWKSNGQPEPEGNYRTTPPQQDVDGTFFLYSKLAVDKARWDHGETFECAVMHEALHNHYTQKSISKTQGK",hepatocyte proliferation,[1]; [4],increasing
same,liver weight to body weight ratio,[1]; [4],significantly increasing
same,gene expression of oncostatin M (OSM),[1]; [5],significantly enhanced
same,gene expression of pro-regenerative cytokine 116,[1]; [5],significantly enhanced
same,urokinase receptor (UR) expression,"[1]; following partial hepatectomy, vs controls",significantly elevated
same,biological activity (proliferation) compared with recombinant pig CSF-1,[2],no difference in biological activity
same,fibrosis assessed by Sirius red quantification,[3]; [6],trend to reduction
same,liver weight to body weight ratio,[3]; [6],increased significantly
same,number of proliferating hepatocytes,[3]; [6],increased significantly
same,mouse body weight,[3]; [6],significant increase in mouse weight
same,mouse body weight,"[3]; chronic liver injury with 2/3 partial hepatectomy, vs control, listed as CSF1-Fc",significant increase in body weight
same,survival,"[3]; chronic liver injury with 2/3 partial hepatectomy, vs control, p=0.08",trend to improved survival
same,serum ALT,[3]; day 4 post hepatectomy,significant reduction
same,serum bilirubin,[3]; day 4 post hepatectomy,significant reduction

# From patent US20180112193A1, “CSF1 THERAPEUTICS” (University Court Of The University Of Edinburgh, priority 2013, published 2018)
